Target: Myl12a, biotinylated (murine) (UniProt Q6ZWQ9)
Experiment: BLI

SteC 194 aa–364 aa (domain or fragment) was tested, and the fold decrease of affinity was 10 fold.

Reference: publication PMC11021425, “Salmonella manipulates macrophage migration via SteC-mediated myosin light chain activation to penetrate the gut-vascular barrier” (The EMBO Journal, 2024)
